Data reported in patent US20210252150A1.

B1: FluA-20 (hybridoma-produced IgG) (antibody, V domains shown)
VH: QVQLQESGPGLVKPSETLSLTCSVSGVSVTSDIYYWTWIRQPPGKGLEWIGYIFYNGDTNYNPSLKSRVTMSIDTSKNEFSLRLTSVTAADTAVYFCARGTEDLGYCSSGSCPNHWGQGTLVTVSS
VL: DIQMTQSPSSLSASIGDRVTITCRPSQNIRSFLNWFQHKPGKAPKLLIYAASNLQSGVPSRFSGSGSGTEFTLTIRSLQPEDFATYYCQQSYNTPPTFGQGTKVEIK
B2: rFluA-20 (recombinant FluA-20 IgG) (antibody, V domains shown)
VH: QVQLQESGPGLVKPSETLSLTCSVSGVSVTSDIYYWTWIRQPPGKGLEWIGYIFYNGDTNYNPSLKSRVTMSIDTSKNEFSLRLTSVTAADTAVYFCARGTEDLGYCSSGSCPNHWGQGTLVTVSS
VL: DIQMTQSPSSLSASIGDRVTITCRPSQNIRSFLNWFQHKPGKAPKLLIYAASNLQSGVPSRFSGSGSGTEFTLTIRSLQPEDFATYYCQQSYNTPPTFGQGTKVEIK
B3: FluA-20 Fab (Fab, V domains shown)
VH: QVQLQESGPGLVKPSETLSLTCSVSGVSVTSDIYYWTWIRQPPGKGLEWIGYIFYNGDTNYNPSLKSRVTMSIDTSKNEFSLRLTSVTAADTAVYFCARGTEDLGYCSSGSCPNHWGQGTLVTVSS
VL: DIQMTQSPSSLSASIGDRVTITCRPSQNIRSFLNWFQHKPGKAPKLLIYAASNLQSGVPSRFSGSGSGTEFTLTIRSLQPEDFATYYCQQSYNTPPTFGQGTKVEIK
B4: rFluA-20 light chain mutant Q55A (antibody, V domains shown)
VH: QVQLQESGPGLVKPSETLSLTCSVSGVSVTSDIYYWTWIRQPPGKGLEWIGYIFYNGDTNYNPSLKSRVTMSIDTSKNEFSLRLTSVTAADTAVYFCARGTEDLGYCSSGSCPNHWGQGTLVTVSS
VL: DIQMTQSPSSLSASIGDRVTITCRPSQNIRSFLNWFQHKPGKAPKLLIYAASNLASGVPSRFSGSGSGTEFTLTIRSLQPEDFATYYCQQSYNTPPTFGQGTKVEIK
B5: rFluA-20 heavy chain mutant Y34A (antibody, V domains shown)
VH: QVQLQESGPGLVKPSETLSLTCSVSGVSVTSDIAYWTWIRQPPGKGLEWIGYIFYNGDTNYNPSLKSRVTMSIDTSKNEFSLRLTSVTAADTAVYFCARGTEDLGYCSSGSCPNHWGQGTLVTVSS
VL: DIQMTQSPSSLSASIGDRVTITCRPSQNIRSFLNWFQHKPGKAPKLLIYAASNLQSGVPSRFSGSGSGTEFTLTIRSLQPEDFATYYCQQSYNTPPTFGQGTKVEIK
B6: rFluA-20 heavy chain mutant T96A (antibody, V domains shown)
VH: QVQLQESGPGLVKPSETLSLTCSVSGVSVTSDIYYWTWIRQPPGKGLEWIGYIFYNGDTNYNPSLKSRVTMSIDTSKNEFSLRLTSVTAADTAVYFCARGAEDLGYCSSGSCPNHWGQGTLVTVSS
VL: DIQMTQSPSSLSASIGDRVTITCRPSQNIRSFLNWFQHKPGKAPKLLIYAASNLQSGVPSRFSGSGSGTEFTLTIRSLQPEDFATYYCQQSYNTPPTFGQGTKVEIK
B7: rFluA-20 heavy chain mutant E97A (antibody, V domains shown)
VH: QVQLQESGPGLVKPSETLSLTCSVSGVSVTSDIYYWTWIRQPPGKGLEWIGYIFYNGDTNYNPSLKSRVTMSIDTSKNEFSLRLTSVTAADTAVYFCARGTADLGYCSSGSCPNHWGQGTLVTVSS
VL: DIQMTQSPSSLSASIGDRVTITCRPSQNIRSFLNWFQHKPGKAPKLLIYAASNLQSGVPSRFSGSGSGTEFTLTIRSLQPEDFATYYCQQSYNTPPTFGQGTKVEIK
B8: rFluA-20 heavy chain mutant Y100aA (antibody, V domains shown)
VH: QVQLQESGPGLVKPSETLSLTCSVSGVSVTSDIYYWTWIRQPPGKGLEWIGYIFYNGDTNYNPSLKSRVTMSIDTSKNEFSLRLTSVTAADTAVYFCARGTEDLGACSSGSCPNHWGQGTLVTVSS
VL: DIQMTQSPSSLSASIGDRVTITCRPSQNIRSFLNWFQHKPGKAPKLLIYAASNLQSGVPSRFSGSGSGTEFTLTIRSLQPEDFATYYCQQSYNTPPTFGQGTKVEIK
B9: rFluA-20 heavy chain mutant D98A (antibody, V domains shown)
VH: QVQLQESGPGLVKPSETLSLTCSVSGVSVTSDIYYWTWIRQPPGKGLEWIGYIFYNGDTNYNPSLKSRVTMSIDTSKNEFSLRLTSVTAADTAVYFCARGTEALGYCSSGSCPNHWGQGTLVTVSS
VL: DIQMTQSPSSLSASIGDRVTITCRPSQNIRSFLNWFQHKPGKAPKLLIYAASNLQSGVPSRFSGSGSGTEFTLTIRSLQPEDFATYYCQQSYNTPPTFGQGTKVEIK

Legend:
[1] = molecular target: T1, HA of A/California/04/2009 (H1N1) (influenza A virus (H1N1)), P26140; assay: ELISA; settings: remark: other sources report otherwise
[2] = molecular target: T1, HA of A/California/04/2009 (H1N1) …; assay: ELISA, recombinant HA; settings: remark: other sources report otherwise
[3] = molecular target: T1, HA of A/California/04/2009 (H1N1) …; assay: ELISA, recombinant HA; settings: remark: other sources report otherwise; remark: listed apart in the source
[4] = molecular target: T1, HA of A/California/04/2009 (H1N1) …; assay: BLI, Fab on immobilized biotinylated HA; settings: remark: other sources report otherwise
[5] = molecular target: T1, HA of A/California/04/2009 (H1N1) …; assay: BLI, 1:1 global fit; Table S2 of the text prints 48 for this strain; settings: remark: other sources report otherwise
[6] = molecular target: HA of A/Hong Kong/1/1968 (H3N2) (influenza A virus (H3N2)), Q91MA7; settings: remark: other sources report otherwise
[7] = molecular target: HA of A/Hong Kong/1073/99 (H9) (influenza A virus (H9))
[8] = molecular target: HA of A/Indonesia/5/2005 (H5N1) (influenza A virus (H5N1))
[9] = molecular target: HA of A/Netherlands/219/2003 (H7N7) (influenza A virus (H7N7))
[10] = molecular target: HA of A/Shanghai/2/2013 (H7N9) (influenza A virus (H7N9))
[11] = molecular target: HA of A/mallard duck/Astrakhan/263/1982 (H14N5) (influenza A virus (H14N5))
[12] = molecular target: HA of A/shearwater/Western Australia/2576/1979 (H15N9) (influenza A virus (H15N9))

Row | Binder | EC50 [7] | EC50 fold over wild-type rFluA-20 [8] | EC50 [9] | EC50 [10] | EC50 [11] | EC50 [12] | also measured
1 | B1 | – | – | – | – | – | – | EC50 [1]: 0.008 µg/mL; EC50 [2]: 0.01 µg/mL
2 | B2 | – | – | – | – | – | – | EC50 [3]: 0.031 µg/mL; EC50 [2]: 0.012 µg/mL
3 | B3 | – | – | – | – | – | – | Kd [4]: 48 nM; Kd [5]: 46 nM
4 | B4 | – | – | – | – | – | – | EC50 [6]: 0.08 µg/mL
5 | B5 | 0.21 µg/mL | > 100 fold | 0.07 µg/mL | 0.44 µg/mL | 0.54 µg/mL | 0.1 µg/mL | –
6 | B6 | 0.1 µg/mL | – | 0.04 µg/mL | 0.37 µg/mL | 0.23 µg/mL | 0.07 µg/mL | EC50 [8]: 0.11 µg/mL
7 | B7 | 0.36 µg/mL | > 100 fold | 0.08 µg/mL | 1 µg/mL | 0.64 µg/mL | 0.12 µg/mL | –
8 | B8 | – | > 100 fold | – | – | – | – | EC50 fold over wild-type rFluA-20 [7]: > 100 fold; EC50 fold over wild-type rFluA-20 [9]: > 100 fold; EC50 fold over wild-type rFluA-20 [10]: > 100 fold; EC50 fold over wild-type rFluA-20 [11]: > 100 fold; EC50 fold over wild-type rFluA-20 [12]: > 100 fold
9 | B9 | – | – | – | – | – | – | EC50 fold over wild-type rFluA-20 [9]: > 100 fold
